Results on four molecules are retold here after patent US5756343, “Cell stress transcriptional factors” (The United States of America as represented by the …, dated 1992).

The target of data set [1] is T1, Drosophila HSF full length (pHSF WT) (Drosophila melanogaster) (UniProt P22813).
T1 sequence: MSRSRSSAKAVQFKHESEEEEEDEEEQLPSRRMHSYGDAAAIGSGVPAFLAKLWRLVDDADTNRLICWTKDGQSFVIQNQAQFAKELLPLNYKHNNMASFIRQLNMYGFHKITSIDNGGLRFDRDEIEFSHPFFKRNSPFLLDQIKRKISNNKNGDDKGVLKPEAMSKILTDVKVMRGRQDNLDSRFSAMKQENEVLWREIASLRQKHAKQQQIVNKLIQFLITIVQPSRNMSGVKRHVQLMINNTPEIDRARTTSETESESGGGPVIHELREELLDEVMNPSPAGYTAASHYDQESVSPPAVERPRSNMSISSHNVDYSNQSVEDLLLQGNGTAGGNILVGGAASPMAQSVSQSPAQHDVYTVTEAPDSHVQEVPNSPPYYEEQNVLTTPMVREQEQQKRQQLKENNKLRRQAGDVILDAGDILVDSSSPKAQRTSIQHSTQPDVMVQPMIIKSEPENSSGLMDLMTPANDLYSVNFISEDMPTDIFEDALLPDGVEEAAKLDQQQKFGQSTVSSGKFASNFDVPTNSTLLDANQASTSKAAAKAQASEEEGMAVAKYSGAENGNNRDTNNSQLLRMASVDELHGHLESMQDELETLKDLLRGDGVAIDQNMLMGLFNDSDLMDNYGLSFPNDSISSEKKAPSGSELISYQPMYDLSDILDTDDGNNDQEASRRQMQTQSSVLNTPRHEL
As to conditions: in vitro transcription, Drosophila embryo extract; scale: fold transcription vs template lacking HSEs.

For data set [2], the target named is human HSF (HuHSF) (Homo sapiens) (UniProt Q00613). As to conditions: in vitro transcription, Drosophila embryo extract.
human HSF (HuHSF) (Homo sapiens), sequence (Q00613 whole entry): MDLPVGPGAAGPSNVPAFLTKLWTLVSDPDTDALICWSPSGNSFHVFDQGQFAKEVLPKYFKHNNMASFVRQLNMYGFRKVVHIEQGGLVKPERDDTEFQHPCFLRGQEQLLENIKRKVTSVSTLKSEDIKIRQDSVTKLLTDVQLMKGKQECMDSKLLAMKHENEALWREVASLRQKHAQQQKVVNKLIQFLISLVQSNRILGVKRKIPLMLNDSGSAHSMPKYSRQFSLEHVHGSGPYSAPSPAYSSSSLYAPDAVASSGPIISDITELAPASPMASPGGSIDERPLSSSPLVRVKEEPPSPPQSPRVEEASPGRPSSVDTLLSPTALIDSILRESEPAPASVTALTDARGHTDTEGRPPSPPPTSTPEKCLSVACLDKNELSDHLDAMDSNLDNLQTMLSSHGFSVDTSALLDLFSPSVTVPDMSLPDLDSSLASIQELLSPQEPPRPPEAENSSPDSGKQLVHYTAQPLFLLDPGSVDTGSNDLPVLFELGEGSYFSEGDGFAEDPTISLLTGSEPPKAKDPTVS
Data set [3] concerns the target T2, Drosophila HSF expressed in Xenopus oocytes (Drosophila melanogaster) (UniProt P22813).
T2 sequence: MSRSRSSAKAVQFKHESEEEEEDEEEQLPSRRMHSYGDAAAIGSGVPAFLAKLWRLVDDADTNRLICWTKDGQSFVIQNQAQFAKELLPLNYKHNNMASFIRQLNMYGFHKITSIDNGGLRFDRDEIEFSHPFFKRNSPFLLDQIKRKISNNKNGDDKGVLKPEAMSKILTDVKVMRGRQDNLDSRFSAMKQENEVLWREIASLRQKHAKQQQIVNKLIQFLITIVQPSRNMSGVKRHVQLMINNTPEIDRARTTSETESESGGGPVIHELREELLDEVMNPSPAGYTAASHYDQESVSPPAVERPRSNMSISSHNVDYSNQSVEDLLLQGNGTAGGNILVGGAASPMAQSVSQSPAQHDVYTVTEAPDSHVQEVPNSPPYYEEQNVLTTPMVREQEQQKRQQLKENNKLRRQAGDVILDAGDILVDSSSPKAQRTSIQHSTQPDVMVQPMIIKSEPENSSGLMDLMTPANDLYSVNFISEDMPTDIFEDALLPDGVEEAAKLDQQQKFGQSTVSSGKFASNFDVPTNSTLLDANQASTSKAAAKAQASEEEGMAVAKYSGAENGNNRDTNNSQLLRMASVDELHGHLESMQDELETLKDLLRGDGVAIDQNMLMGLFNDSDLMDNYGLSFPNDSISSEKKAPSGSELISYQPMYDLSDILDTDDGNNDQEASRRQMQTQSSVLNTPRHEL
Description: EMSA. As to conditions: oocytes 36 C 10 min vs 18 C. (In general: In EMSA bound probe runs differently from free probe, usually more slowly.)

Data set [4] deals with the molecule itself. Description: self-association: pore exclusion limit electrophoresis on a nondenaturing gradient gel, purified HSF from E. coli. As to the method: The gel was stained with Coomassie Blue. […] (B) Pore exclusion limit analysis of the HSF:^32P-HSE complex. 3 µl of Drosophila SL-2 cell cytosol (lanes 1,2) and 0.5 µl of an extract *E. coli* expressing HSF (lanes 3,4) were heat shocked (+) in vitro at 34° C. or incubated at 0° C. (−) for 10 min. The samples were incubated for 10 min with ^32P-labeled HSE tinder standard gel shift conditions, and electrophoresed on a nondenaturing, 3–12% polyacrylamide gradient gel until the limit of migration. The gel was stained with Coomassie Blue, dried and subjected to autoradiography. The positions of marker proteins are indicated. (C) Glutaraldehyde cross-linking of cloned HSF. Purified HSF (2 µg/10 µl) was treated for 5 min at room temperature with glutaraldehyde as indicated. After quenching, about 1 µg of cross-linked HSF was separated on a 4–6% SDS polyacrylamide gel, and silver stained. The minor polypeptides below the 105 kD HSF protein probably represent degradation products. […] Cross-linked products were analyzed by SDS gel electrophoresis as above.
EXAMPLE 5 Recombinant Drosophila HSF Expressed in *E. coli*. Associates as a Hexamer in Solution The apparent molecular mass of recombinant HSF, purified from *E. coli* extracts, was determined to be about 105 KD by SDS polyacrylamide gel electrophoresis (see FIG. 6).

A further data set deals with T3, Drosophila HSF 1-163 (Drosophila melanogaster, UniProt P22813 SEQ:1-163).
T3 chain: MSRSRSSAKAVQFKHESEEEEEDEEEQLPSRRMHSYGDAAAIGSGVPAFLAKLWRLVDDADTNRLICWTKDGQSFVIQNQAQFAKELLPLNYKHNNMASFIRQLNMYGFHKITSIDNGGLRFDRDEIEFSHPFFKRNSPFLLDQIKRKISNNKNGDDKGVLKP
Description: footprint; estimated from protein concentration for about 50% binding. As to conditions: tags: E. coli BL21(DE3) extract; label: 32P 5' end. As to the method: (§1) All numbers refer to amino acid positions. The open bars represent HSF coding sequences; the shaded regions A–D represent sequences conserved between Drosophila and yeast HSF. The solid boxes indicate the φ10 promoter (T_7), the Shine-Delgarno (SD) sequence, and the transcription terminator (T) of the expression vector. (B) SDS polyacrylamide gel analysis of wild-type and mutant HSF polypeptides. Mutants were expressed in BL21 (DE3) in the presence of ^35S-methionine (20 µCi/ml). 0.1 ml of culture was precipitated and the pellet was denatured at 100° C. in 10 µl of Laemmli sample buffer. Samples were electrophoresed on a 15% polyacrylamide gel and visualized by fluorography. The arrows pointing left indicate HSF polypeptides. A 26 kD protein (arrowhead) was also labeled in all samples, including *E. coli* transformed with the expression vector alone. (C) DNase I protection analysis of HSF mutants. A labeled fragment from the hsp70 promoter was incubated with the indicated amounts of wild-type or mutant HSF proteins. Footprinting reactions were performed essentially as described in FIG. 3C. Figure 7B: Figure 7C: […]

A further data set addresses T4, Drosophila HSF 1-241 (Drosophila melanogaster, UniProt P22813 SEQ:1-241).
T4 chain: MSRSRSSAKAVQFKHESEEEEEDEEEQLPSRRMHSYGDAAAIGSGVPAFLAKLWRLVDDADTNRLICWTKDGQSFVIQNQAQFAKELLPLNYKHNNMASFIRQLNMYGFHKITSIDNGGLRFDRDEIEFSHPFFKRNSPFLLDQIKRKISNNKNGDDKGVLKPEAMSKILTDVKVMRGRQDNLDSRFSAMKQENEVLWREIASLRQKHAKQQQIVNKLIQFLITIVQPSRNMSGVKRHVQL
Description: footprint. As to conditions: tags: E. coli BL21(DE3) extract; label: 32P 5' end.
Description: as §1, with “Figure 7A: FIGS. 7A, 7B, and 7C represent the deletion analysis of HSF. (A) Schematic drawing of full-length HSF open reading frame (pHSF WT) and three deletion mutants PHSF 1-367, 1-241, and 1-163. All” for “All”

The target in another data set is T5, Drosophila HSF 1-367 (Drosophila melanogaster, UniProt P22813 SEQ:1-367).
T5 chain: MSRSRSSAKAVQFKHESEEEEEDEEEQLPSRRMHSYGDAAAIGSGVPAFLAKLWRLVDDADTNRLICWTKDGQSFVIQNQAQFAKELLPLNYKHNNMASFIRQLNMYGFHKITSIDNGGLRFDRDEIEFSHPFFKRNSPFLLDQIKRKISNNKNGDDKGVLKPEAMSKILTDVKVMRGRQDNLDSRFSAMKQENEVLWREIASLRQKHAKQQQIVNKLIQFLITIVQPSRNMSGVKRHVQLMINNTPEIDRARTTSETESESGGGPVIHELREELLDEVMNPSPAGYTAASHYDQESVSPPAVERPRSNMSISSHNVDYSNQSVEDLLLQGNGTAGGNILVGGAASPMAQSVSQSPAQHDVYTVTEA
Put plainly: footprint. As to conditions: tags: E. coli BL21(DE3) extract; label: 32P 5' end.
Description: as §1, with “Figure 7A: FIGS. 7A, 7B, and 7C represent the deletion analysis of HSF. (A) Schematic drawing of full-length HSF open reading frame (pHSF WT) and three deletion mutants PHSF 1-367, 1-241, and 1-163. All” for “All”

In data set [1], phsp70(-50)HSE2 template displayed an activity of 7. Moreover, the activity (fold transcription stimulation) in data set [2] was 6.
On to “synthetic HSE with three -GAA- repeats in alternating orientation”, for which the binding signal (fold increase on heat shock) in data set [3] stood at 5.

B1: recombinant Drosophila heat shock factor (HSF), full-length, expressed in E. coli (pHSFWT) or translated in vitro in rabbit reticulocyte lysate (other)
chain: MSRSRSSAKAVQFKHESEEEEEDEEEQLPSRRMHSYGDAAAIGSGVPAFLAKLWRLVDDADTNRLICWTKDGQSFVIQNQAQFAKELLPLNYKHNNMASFIRQLNMYGFHKITSIDNGGLRFDRDEIEFSHPFFKRNSPFLLDQIKRKISNNKNGDDKGVLKPEAMSKILTDVKVMRGRQDNLDSRFSAMKQENEVLWREIASLRQKHAKQQQIVNKLIQFLITIVQPSRNMSGVKRHVQLMINNTPEIDRARTTSETESESGGGPVIHELREELLDEVMNPSPAGYTAASHYDQESVSPPAVERPRSNMSISSHNVDYSNQSVEDLLLQGNGTAGGNILVGGAASPMAQSVSQSPAQHDVYTVTEAPDSHVQEVPNSPPYYEEQNVLTTPMVREQEQQKRQQLKENNKLRRQAGDVILDAGDILVDSSSPKAQRTSIQHSTQPDVMVQPMIIKSEPENSSGLMDLMTPANDLYSVNFISEDMPTDIFEDALLPDGVEEAAKLDQQQKFGQSTVSSGKFASNFDVPTNSTLLDANQASTSKAAAKAQASEEEGMAVAKYSGAENGNNRDTNNSQLLRMASVDELHGHLESMQDELETLKDLLRGDGVAIDQNMLMGLFNDSDLMDNYGLSFPNDSISSEKKAPSGSELISYQPMYDLSDILDTDDGNNDQEASRRQMQTQSSVLNTPRHEL
Consider B1, for which the binding result in data set [4] was “binds”.

B2: hsp70 promoter (-100 to +10 printed) (dsDNA)
DNA 1: AAACGGCACACTGTTCTCGTTGCTTCGAGAGAGCGCGCCTCGAATGTTCGCGAAAAGAGCGCCGGAGTATAAATAGAGGCGCTTCGTCGACGGAGCGTCAATTCAATTCA
DNA 2: TGAATTGAATTGACGCTCCGTCGACGAAGCGCCTCTATTTATACTCCGGCGCTCTTTTCGCGAACATTCGAGGCGCGCTCTCTCGAAGCAACGAGAACAGTGTGCCGTTT
Turning to B2, the binding signal with Drosophila HSF 1-163 is 50 fold lower affinity vs full length; with Drosophila HSF 1-241, ≤ 2 fold difference vs full length; with Drosophila HSF 1-367 it was ≤ 2 fold difference vs full length.
